For this test, the target named is GFP-VASP (UniProt P50552 1-380). The test is described as follows: co-IP.
GFP-VASP, sequence (P50552 whole entry): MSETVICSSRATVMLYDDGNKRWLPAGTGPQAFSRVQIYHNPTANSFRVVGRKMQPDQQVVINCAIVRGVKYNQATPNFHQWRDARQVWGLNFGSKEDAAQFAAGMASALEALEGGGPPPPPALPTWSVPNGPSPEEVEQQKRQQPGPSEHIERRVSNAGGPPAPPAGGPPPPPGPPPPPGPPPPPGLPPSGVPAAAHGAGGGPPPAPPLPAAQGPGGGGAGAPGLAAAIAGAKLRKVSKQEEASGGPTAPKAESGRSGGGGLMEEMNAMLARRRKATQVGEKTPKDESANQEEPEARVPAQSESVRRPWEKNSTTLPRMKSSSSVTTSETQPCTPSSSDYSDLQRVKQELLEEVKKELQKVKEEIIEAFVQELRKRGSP

B1: endogenous GRASP65 (natural protein)
chain: not shown
For the molecule B1, the “amount coimmunoprecipitated, % relative to GFP-Mena” value is 8.2 ± 3.3%.

(Values after article PMC4694753 (Molecular Biology of the Cell, 2016).)
